Measurements as given in patent US20030165489A1.

Experiments:
SP (substance P) [1] = target: T1, SP (substance P) (UniProt P20366)
T1 sequence: RPKPQQFFGLM

SP (substance P) [2] = target: SP (substance P) (UniProt P20366); experiment: cell-based or functional assay

Row | Substance | degradation of SP identified by mass-spectrometry (SP (substance P) [1]) | diminution of SP-evoked vasodilatory response (100 pg SP, pig in vivo, after 50 µg DPPIV) (SP (substance P) [2]) [%] | diminution of SP-evoked vasodilatory response (1 ng SP, pig in vivo, after 50 µg DPPIV) (SP (substance P) [2]) [%]
1 | Recombinant dipeptidyl peptidase IV (DPPIV), soluble form secreted from Aspergilus Fumigatus | SP (1.8 µg) co-incubated with 0.016 µg of DPPIV for ten minutes at 37 °C is degraded to SP5-11 |  | 
2 | Recombinant dipeptidyl peptidase IV (DPPIV), soluble form secreted from Aspergilus Fumigatus (enzyme) |  | 66 | 71
